Reference: FireProtDB
Several values for one entry are separate records, joined by “and”; a condition that tells them apart may be missing. Identical values can stand only once.

Conditions: whole UniProt chain shown
[1] = Thermus thermophilus (strain ATCC 27634 / DSM 579 / HB8), pH 7.4, 29 °C, Thermal, CD, Potassium phosphate 50 mM, reversible: Yes
[2] = Thermus thermophilus (strain ATCC 27634 / DSM 579 / HB8), pH 7.4, 35 °C, Thermal, CD, Potassium phosphate 50 mM, reversible: Yes
[3] = Thermus thermophilus (strain ATCC 27634 / DSM 579 / HB8), pH 7.4, Thermal, absorbance, Potassium buffer
[4] = Sus scrofa, pH 6.5, 20 °C, GdnHCl, Fluorescence, MES-NaOH 20 mM, NaCl 100 mM, reversible: yes
[5] = Vibrio harveyi, pH 7, 18 °C, Urea, CD, phosphate 50 mM, reversible: yes

B1: wild type, Q53W59 (protein)
chain: MKRLSLREAWPYLKDLQQDPLAVLLEWGRAHPRLFLPLPRFPLALIFDPEGVEGALLAEGTTKATFQYRALSRLTGRGLLTDWGKSWKEARKALKDPFLPKSVRGYREAMEEEAWAFFGEWRGEERDLDHEMLALSLRLLGRALFGKPLSPSLAEHALKALDRIMAQTRSPLALLDLAAEARFRKDRGALYREAEALIVHPPLSHLPRERALSEAVTLLVAGHETVASALTWSFLLLSHRPDWQKRVAESEEAALAAFQEALRLYPPAWILTRRLERPLLLGEDRLPQGTTLVLSPYVTQRLYFPEGEAFQPERFLAERGTPSGRYFPFGLGQRLCLGRDFALLEGPIVLRAFFRRFRLDPLPFPRVLAQVTLRPEGGLPARPREGVRA
In the case of B1, the “heat capacity change of unfolding” value [1] is reported as 1.15 kcal/mol/K, the “unfolding enthalpy (van 't Hoff)” value [1] is reported as 71 kcal/mol and the unfolding free energy [1] is reported as 5.74 kcal/mol. For the same protein, the “heat capacity change of unfolding” value [2] was 1.17 kcal/mol/K, the “unfolding enthalpy (van 't Hoff)” value [2] was 61.7 kcal/mol and the unfolding free energy [2] was 4.3 kcal/mol. The Tm (Thermus thermophilus (strain ATCC 27634 / DSM 579 / HB8), pH 7.4, Thermal, CD, Potassium phosphate 50 mM, reversible: Yes) was 87 °C and 83.7 °C, the Tm [3] was 88 °C and the “heat capacity change of unfolding” value [3] was 1.14 kcal/mol/K. For the same protein, the “unfolding enthalpy (calorimetric)” value [3] was 71 kcal/mol.

B2: Cytochrome P450 119 wild type, Q55080 (protein)
chain: MYDWFSEMRKKDPVYYDGNIWQVFSYRYTKEVLNNFSKFSSDLTGYHERLEDLRNGKIRFDIPTRYTMLTSDPPLHDELRSMSADIFSPQKLQTLETFIRETTRSLLDSIDPREDDIVKKLAVPLPIIVISKILGLPIEDKEKFKEWSDLVAFRLGKPGEIFELGKKYLELIGYVKDHLNSGTEVVSRVVNSNLSDIEKLGYIILLLIAGNETTTNLISNSVIDFTRFNLWQRIREENLYLKAIEEALRYSPPVMRTVRKTKERVKLGDQTIEEGEYVRVWIASANRDEEVFHDGEKFIPDRNPNPHLSFGSGIHLCLGAPLARLEARIAIEEFSKRFRHIEILDTEKVPNEVLNGYKRLVVRLKSNE
Work on B2 yielded a Tm (Sulfolobus acidocaldarius (strain ATCC 33909 / DSM 639 / JCM 8929 / NBRC 15157 / NCIMB 11770), pH 7.4, Thermal, absorbance, Tris) of 91 °C.

B3: Glutathione S-transferase omega-1 wild type, Q9N1F5 (protein)
chain: MSGGSARSLGKGSAPPGPVPEGLIRVYSMRFCPFAQRTLLVLNAKGIRHQVININLKNKPEWFFQKNPSGLVPVLENSQGQLIYESAITCEYLDEAYPGKKLLPDDPYEKACQKMVFELSSKVPPLLIRFIRRENEADCSGLKEELRKEFSKLEEVLTKKKTTYFGGSSLSMIDYLIWPWFERLEALELNECIDHTPKLKLWMAAMMKDPAVSALHIEPRDLRAFNDLYLQNSPEACDYGL
In the case of B3, the denaturant m value [4] is reported as 11.1 kcal/mol/M, the unfolding free energy [4] is reported as 23.3 kcal/mol and the denaturant m value (Sus scrofa, pH 6.5, 20 °C, Urea, Fluorescence, MES-NaOH 20 mM, NaCl 100 mM, reversible: yes) is reported as 4.6 kcal/mol/M.

B4: Protein GrpE wild type, Q56236 (protein)
chain: MEERNHENTLEKDLEAVGQEAQALEERLKAAEEELKGLKDKYLRLLADFDNYRKRMEEELKAREREGVLKALRALLPVLDDLDRALEFAEASPESIRQGVRAIRDGFFRILAGLGVEEVPGEGEAFDPRYHEAVGLLPGEPGKVAKVFQRGFRMGEALVRPARVAVGEEKREEADLE
For B4, the unfolding free energy (Thermus thermophilus (strain ATCC 27634 / DSM 579 / HB8), pH 7.5, 25 °C, GdnHCl, CD, Tris-HCl 20 mM, KCl 100 mM, reversible: yes) was 4.13 kcal/mol and the Tm (Thermus thermophilus (strain ATCC 27634 / DSM 579 / HB8), pH 7.5, Thermal, DSC, Hepes-NaOH 20 mM, KCl 100 mM, reversible: yes) was 106 °C.

B5: Alkanal monooxygenase alpha chain wild type, P07740 (protein)
chain: MKFGNFLLTYQPPELSQTEVMKRLVNLGKASEGCGFDTVWLLEHHFTEFGLLGNPYVAAAHLLGATETLNVGTAAIVLPTAHPVRQAEDVNLLDQMSKGRFRFGICRGLYDKDFRVFGTDMDNSRALMDCWYDLMKEGFNEGYIAADNEHIKFPKIQLNPSAYTQGGAPVYVVAESASTTEWAAERGLPMILSWIINTHEKKAQLDLYNEVATEHGYDVTKIDHCLSYITSVDHDSNRAKDICRNFLGHWYDSYVNATKIFDDSDQTKGYDFNKGQWRDFVLKGHKDTNRRIDYSYEINPVGTPEECIAIIQQDIDATGIDNICCGFEANGSEEEIIASMKLFQSDVMPYLKEKQ
For B5, the denaturant m value [5] was 2.26 kcal/mol/M and 2.18 kcal/mol/M, the unfolding free energy [5] was 2.36 kcal/mol and 6.04 kcal/mol and the denaturant m value (Vibrio harveyi, pH 7, 18 °C, Urea, Fluorescence, NaH2PO4-K2HPO4 50 mM, transition: 3, reversible: yes) was 2.38 kcal/mol/M and 3.99 kcal/mol/M. It also gave a denaturant m value (Vibrio harveyi, pH 7, 18 °C, Urea, Fluorescence, phosphate 50 mM, reversible: yes) of 2.47 kcal/mol/M.

B6: Divalent-cation tolerance protein CutA wild type, Q7SIA8 (protein)
chain: MEEVVLITVPSEEVARTIAKALVEERLAACVNIVPGLTSIYRWQGEVVEDQELLLLVKTTTHAFPKLKERVKALHPYTVPEIVALPIAEGNREYLDWLRENTG
Work on B6 yielded a Tm (Thermus thermophilus (strain ATCC 27634 / DSM 579 / HB8), pH 7, Thermal, DSC, potassium phosphate 50 mM, reversible: No) of 113 °C.
